B1: Superoxide dismutase [Cu-Zn] (enzyme)
chain: not shown
B2: Sodium/potassium-transporting ATPase alpha-2 chain precursor (Sodium pump 2) (Na+/K+ ATPase 2) (Alpha(+)) (enzyme)
chain: not shown
notes: also called AT1A2_MOUSE
B3: Peroxiredoxin-5, mitochondrial precursor (Prx-V) (enzyme, mouse, UniProt P99029 49-210, looked up)
chain: MAPIKVGDAIPSVEVFEGEPGKKVNLAELFKGKKGVLFGVPGAFTPGCSKTHLPGFVEQAGALKAKGAQVVACLSVNDVFVIEEWGRAHQAEGKVRLLADPTGAFGKATDLLLDDSLVSLFGNRRLKRFSMVIDNGIVKALNVEPDGTGLTCSLAPNILSQL
notes: also called PRDX5_MOUSE
B4: 14-3-3 protein eta (other, mouse, UniProt P68510 2-246, looked up)
chain: GDREQLLQRARLAEQAERYDDMASAMKAVTELNEPLSNEDRNLLSVAYKNVVGARRSSWRVISSIEQKTMADGNEKKLEKVKAYREKIEKELETVCNDVLALLDKFLIKNCNDFQYESKVFYLKMKGDYYRYLAEVASGEKKNSVVEASEAAYKEAFEISKEHMQPTHPIRLGLALNFSVFYYEIQNAPEQACLLAKQAFDDAIAELDTLNEDSYKDSTLIMQLLRDNLTLWTSDQQDEEAGEGN
notes: also called 14-3-3 η
B5: 2',3'-cyclic-nucleotide 3'-phosphodiesterase (CNPase) (enzyme, mouse, UniProt P16330 1-417, looked up)
chain: MNTSFTRKSHTFLPKLFFRKMSSSGAKEKPELQFPFLQDEDTVATLHECKTLFILRGLPGSGKSTLARLILEKYHDGTKMVSADAYKIIPGSRADFSEAYKRLDEDLAGYCRRDIRVLVLDDTNHERERLDQLFEMADQYQYQVVLVEPKTAWRLDCAQLKEKNQWQLSADDLKKLKPGLEKDFLPLYFGWFLTKKSSETLRKAGQVFLEELGNHKAFKKELRHFISGDEPKEKLELVSYFGKRPPGVLHCTTKFCDYGKAAGAEEYAQQEVVKRSYGKAFKLSISALFVTPKTAGAQVVLTDQELQLWPSDLDKPSASEGLPPGSRAHVTLGCAADVQPVQTGLDLLDILQQVKGGSQGEAVGELPRGKLYSLGKGRWMLSLTKKMEVKAIFTGYYGKGKPVPIHGSRKGGAMQIC
notes: also called CN37_MOUSE
B6: ATP synthase alpha chain; mitochondrial precursor (enzyme, mouse, UniProt Q03265 44-553, looked up)
chain: QKTGTAEMSSILEERILGADTSVDLEETGRVLSIGDGIARVHGLRNVQAEEMVEFSSGLKGMSLNLEPDNVGVVVFGNDKLIKEGDVVKRTGAIVDVPVGEELLGRVVDALGNAIDGKGPIGSKTRRRVGLKAPGIIPRISVREPMQTGIKAVDSLVPIGRGQRELIIGDRQTGKTSIAIDTIINQKRFNDGTDEKKKLYCIYVAIGQKRSTVAQLVKRLTDADAMKYTIVVSATASDAAPLQYLAPYSGCSMGEYFRDNGKHALIIYDDLSKQAVAYRQMSLLLRRPPGREAYPGDVFYLHSRLLERAAKMNDSFGGGSLTALPVIETQAGDVSAYIPTNVISITDGQIFLETELFYKGIRPAINVGLSVSRVGSAAQTRAMKQVAGTMKLELAQYREVAAFAQFGSDLDAATQQLLSRGVRLTELLKQGQYSPMAIEEQVAVIYAGVRGYLDKLEPSKITKFENAFLSHVISQHQSLLGNIRSDGKISEQSDAKLKEIVTNFLAGFEP
B7: Excitatory amino acid transporter 1 (Sodium-dependent glutamate/aspartate transporter) (GLAST) (other, mouse, UniProt P56564 1-543, looked up)
chain: MTKSNGEEPRMGGRMERLQQGVRKRTLLAKKKVQSLTKEDVKSYLFRNAFVLLTVTAVIVGTILGFALRPYKMSYREVKYFSFPGELLMRMLQMLVLPLIISSLVTGMAALDSKASGKMGMRAVVYYMTTTIIAVVIGIIIVIIIHPGKGTKENMYREGKIVQVTAADAFLDLIRNMFPPNLVEACFKQFKTSYEKRSFKVPIQSNETLLGAVINNVSEAMETLTRIREEMVPVPGSVNGVNALGLVVFSMCFGFVIGNMKEQGQALREFFDSLNEAIMRLVAVIMWYAPLGILFLIAGKIVEMEDMGVIGGQLAMYTVTVIVGLLIHAVIVLPLLYFLVTRKNPWVFIGGLLQALITALGTSSSSATLPITFKCLEENNGVDKRITRFVLPVGATINMDGTALYEALAAIFIAQVNNFDLNFGQIITISITATAASIGAAGIPQAGLVTMVIVLTSVGLPTDDITLIIAVDWFLDRLRTTTNVLGDSLGAGIVEHLSRHELKNRDVEMGNSVIEENEMKKPYQLIAQDNEPEKPVADSETKM
notes: also called EAA1_MOUSE
B8: MKIAA0820 protein (Fragment) (other, mouse, UniProt Q8BZ98 1-863, looked up)
chain: MGNREMEELIPLVNRLQDAFSALGQSCLLELPQIAVVGGQSAGKSSVLENFVGRDFLPRGSGIVTRRPLVLQLVTSKAEYAEFLHCKGKKFTDFDEVRHEIEAETDRVTGMNKGISSIPINLRVYSPHVLNLTLIDLPGITKVPVGDQPPDIEYQIRDMIMQFITRENCLILAVTPANTDLANSDALKLAKEVDPQGLRTIGVITKLDLMDEGTDARDVLENKLLPLRRGYVGVVNRSQKDIDGKKDIKAAMLAERKFFLSHPAYRHIADRMGTPHLQKVLNQQLTNHIRDTLPNFRNKLQGQLLSIEHEVEAFKNFKPEDPTRKTKALLQMVQQFAVDFEKRIEGSGDQVDTLELSGGAKINRIFHERFPFEIVKMEFNEKELRREISYAIKNIHGIRTGLFTPDMAFEAIVKKQIVKLKGPSLKSVDLVMQELINTVKKCTKRLANFPRLCEETERIVANHIREREGKTKDQVLLLIDIQVSYINTNHEDFIGFANAQQRSSQVHKKSTIGNQVIRKGWLTVSNIGIMKGGSKGYWFVLTAESLSWYKDDEEKEKKYMLPLDNLKVRDVEKGFMSSKHVFALFNTEQRNVYKDYRFLELACDSQEDVDSWKASLLRAGVYPDKSVGSNKTENDENGQAENFSMDPQLERQVETIRNLVDSYMSIINKCIRDLIPKTIMHLMINNVKDFINSELLAQLYSSEDQNTLMEESAEQAQRRDEMLRMYQALKEALAIIGDINTATVSTPAPPPVDDSWLQHSRRSPPPSPTTQRRLTISAPLPRPTSGRGPAPAIPSPGPHSGAPPVPFRPGPLPPFPNSSDSFGAPPQVPSRPTRAPPSVPSRRPPPSPTRPTIIRPLESSLLD
notes: also called Q80TR2_MOUSE
B9: Elongation factor 1-alpha 2 (EF-1-alpha-2) (Elongation factor 1 A-2) (eEF1A-2) (Statin S1) (other, mouse, UniProt P62631 2-463, looked up)
chain: GKEKTHINIVVIGHVDSGKSTTTGHLIYKCGGIDKRTIEKFEKEAAEMGKGSFKYAWVLDKLKAERERGITIDISLWKFETTKYYITIIDAPGHRDFIKNMITGTSQADCAVLIVAAGVGEFEAGISKNGQTREHALLAYTLGVKQLIVGVNKMDSTEPAYSEKRYDEIVKEVSAYIKKIGYNPATVPFVPISGWHGDNMLEPSPNMPWFKGWKVERKEGNASGVSLLEALDTILPPTRPTDKPLRLPLQDVYKIGGIGTVPVGRVETGILRPGMVVTFAPVNITTEVKSVEMHHEALSEALPGDNVGFNVKNVSVKDIRRGNVCGDSKADPPQEAAQFTSQVIILNHPGQISAGYSPVIDCHTAHIACKFAELKEKIDRRSGKKLEDNPKSLKSGDAAIVEMVPGKPMCVESFSQYPPLGRFAVRDMRQTVAVGVIKNVEKKSGGAGKVTKSAQKAQKAGK
notes: also called EF1A2_MOUSE
B10: 14-3-3 protein theta (14-3-3 protein tau) (other, mouse, UniProt P68254 1-245, looked up)
chain: MEKTELIQKAKLAEQAERYDDMATCMKAVTEQGAELSNEERNLLSVAYKNVVGGRRSAWRVISSIEQKTDTSDKKLQLIKDYREKVESELRSICTTVLELLDKYLIANATNPESKVFYLKMKGDYFRYLAEVACGDDRKQTIENSQGAYQEAFDISKKEMQPTHPIRLGLALNFSVFYYEILNNPELACTLAKTAFDEAIAELDTLNEDSYKDSTLIMQLLRDNLTLWTSDSAGEECDAAEGAEN
notes: also called 14-3-3 θ
B11: Tubulin beta-4 chain (other, mouse, UniProt Q9D6F9 1-444, looked up)
chain: MREIVHLQAGQCGNQIGAKFWEVISDEHGIDPTGTYHGDSDLQLERINVYYNEATGGNYVPRAVLVDLEPGTMDSVRSGPFGQIFRPDNFVFGQSGAGNNWAKGHYTEGAELVDAVLDVVRKEAESCDCLQGFQLTHSLGGGTGSGMGTLLISKIREEFPDRIMNTFSVVPSPKVSDTVVEPYNATLSVHQLVENTDETYCIDNEALYDICFRTLKLTTPTYGDLNHLVSATMSGVTTCLRFPGQLNADLRKLAVNMVPFPRLHFFMPGFAPLTSRGSQQYRALTVPELTQQMFDAKNMMAACDPRHGRYLTVAAVFRGRMSMKEVDEQMLSVQSKNSSYFVEWIPNNVKTAVCDIPPRGLKMAATFIGNSTAIQELFKRISEQFTAMFRRKAFLHWYTGEGMDEMEFTEAESNMNDLVSEYQQYQDATAEEGEFEEEAEEEVA
notes: also called TBB4_MOUSE
B12: 14-3-3 protein beta/alpha (Protein kinase C inhibitor protein 1) (KCIP-1) (other, mouse, UniProt Q9CQV8 1-246, looked up)
chain: MTMDKSELVQKAKLAEQAERYDDMAAAMKAVTEQGHELSNEERNLLSVAYKNVVGARRSSWRVISSIEQKTERNEKKQQMGKEYREKIEAELQDICNDVLELLDKYLILNATQAESKVFYLKMKGDYFRYLSEVASGENKQTTVSNSQQAYQEAFEISKKEMQPTHPIRLGLALNFSVFYYEILNSPEKACSLAKTAFDEAIAELDTLNEESYKDSTLIMQLLRDNLTLWTSENQGDEGDAGEGEN
notes: also called 14-3-3 β
B13: Neuronal membrane glycoprotein M6-b (M6b) (other, mouse, UniProt P35803 1-328, looked up)
chain: MKPAMETAAEENTEQSQERKVNSRAEMEIGRYHWMYPGSKNHQYRPVPNLGDRAGPLSSPGCFECCIKCLGGVPYASLVATILCFSGVALFCGCGHVALAGTVAILEQHFSTNTSDHALLSEVIQLMQYVIYGIASFFFLYGIILLAEGFYTTSAVKELHGEFKTTACGRCISGMFVFLTYVLGVAWLGVFGFSAVPVFMFYNIWSTCEVIKSPQSNGTSGVEQICVDVRQYGIIPWNAFPGKICGSALENICNTNEFYMSYHLFIVACAGAGATVIALIHFLMILSSNWAYLKDASKMQAYQDIKAKEEQELQDIQSRSKEQLNSYT
notes: also called Proteolipid protein PLP/dm-20
B14: ATP synthase e chain, mitochondrial (enzyme, mouse, UniProt Q06185 2-71, looked up)
chain: VPPVQVSPLIKFGRYSALIIGMAYGAKRYSYLKPRAEEERRIAAEEKKRLDELKRIERELAEAQDDSILK
notes: also called epsilon chain
B15: Myosin light chain kinase 2, skeletal/cardiac muscle (MLCK2) (Fragment) (enzyme, mouse, UniProt Q8VCR8 1-613, looked up)
chain: MTTENGAVELGSQSLSTEQTPKAAAGDGPSASEKEPSAPATEKDLSPPNAKKDPGAPDPKNNPDPPSLKKDPAKAPGPEKKGDPVPASASSQGPSGEGDGGGGPAEGSEGPPAALPLPTATAEASIQKLDPTQAPSGNQGSGEAKAGKKAAECREAGRRGSPAFLHSPSCPAIISCSEKTLAVKPLSETTDLVFTGVSVTPDPQDPGPVKAGGTNALAEKKKEEAEKASGQAGQAKVQGDTPQRIGFQAVPSERVEVGQALCLTAREEDCFQILDDCPPPPAPFPHRIVELRTGNVNSEFSMNSKEALGGGKFGAVCTCTERATGLKLAAKVIKKQTPKDKEMVLLEIEVMNQLNHRNLIQLYAAIETSHEIILFMEYIEGGELFERIVDEDYHLTEVDTMVFVRQICDGILFMHKMRVLHLDLKPENILCVNTTGHLVKIIDFGLARRYNPNEKLKVNFGTPEFLSPEVVNYDQISDKTDMWSLGVITYMLLSGLSPFLGDDDTETLNNVLSANWYFDEETFEAVSDEAKDFVSNLLTKDQSARMSAEQCLAHPWLNNLAEKAKRCNRRLKSQILLKKYLMKRRWKKNFIAVSAANRFKKISSSGALMALGV
notes: also called MYLK2_MOUSE

Legend:
APP-TAP-AICD [1] = target: T1, APP-TAP-AICD (human, UniProt P05067 18-695); assay: streptavidin purification of APP-TAP-AICD from brain homogenate; LTQ-FT semiquantitative method, transgenic mouse 75 vs control mouse 72
APP-TAP-AICD [2] = target: T1, APP-TAP-AICD; assay: streptavidin purification of APP-TAP-AICD from brain homogenate; iTRAQ 116/114, transgenic mouse 75 vs control mouse 72; MALDI-TOF/TOF;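 also: relative protein abundance in the transgenic versus control pull-down, limited to proteins with high quality scores and above-average enrichment, without full normalization across the whole measurement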
Description: Shown are all proteins that have high quality scores and are enriched above average in the m75 sample. Purified bait protein is given underlined. Other already known interaction partners of AICD or putatively biologically relevant proteins are given in bold. As full normalization over the entire measurement was not possible through the GPS explorer software suite, this conservative estimate had to be taken for determining the enriched vs. the non-enriched proteins. […] Ranking is in order of abundance ratio.

Row | Binder | probability that this protein is enriched (APP-TAP-AICD [1]) | iTRAQ ratio (APP-TAP-AICD [2])
1 | B1 | 1 | 
2 | B2 | 0.88 | 
3 | B3 | 1 | 
4 | B4 | 1 | 
5 | B5 | 0.87 | 
6 | B6 |  | 3.39
7 | B7 | 1 | 
8 | B8 | 1 | 
9 | B9 | 1 | 
10 | B10 | 1 | 
11 | B11 |  | 3.22
12 | B12 | 1 | 
13 | B13 | 0.87 | 
14 | B14 | 0.88 | 
15 | B15 | 1 | 
